Experimental data reported in patent US20260250410A1 (SICHUAN HUIYU PHARMACEUTICAL, published 2026).

Key:
Test in all cases: SPR (Caterra or Biacore), antigen immobilized
RatCDCP1 = molecular target: T1, RatCDCP1 (rat, UniProt D3ZVA1 29-666)
T1 construct: extracellular domain; not shown: Fc or his tag
T1 sequence: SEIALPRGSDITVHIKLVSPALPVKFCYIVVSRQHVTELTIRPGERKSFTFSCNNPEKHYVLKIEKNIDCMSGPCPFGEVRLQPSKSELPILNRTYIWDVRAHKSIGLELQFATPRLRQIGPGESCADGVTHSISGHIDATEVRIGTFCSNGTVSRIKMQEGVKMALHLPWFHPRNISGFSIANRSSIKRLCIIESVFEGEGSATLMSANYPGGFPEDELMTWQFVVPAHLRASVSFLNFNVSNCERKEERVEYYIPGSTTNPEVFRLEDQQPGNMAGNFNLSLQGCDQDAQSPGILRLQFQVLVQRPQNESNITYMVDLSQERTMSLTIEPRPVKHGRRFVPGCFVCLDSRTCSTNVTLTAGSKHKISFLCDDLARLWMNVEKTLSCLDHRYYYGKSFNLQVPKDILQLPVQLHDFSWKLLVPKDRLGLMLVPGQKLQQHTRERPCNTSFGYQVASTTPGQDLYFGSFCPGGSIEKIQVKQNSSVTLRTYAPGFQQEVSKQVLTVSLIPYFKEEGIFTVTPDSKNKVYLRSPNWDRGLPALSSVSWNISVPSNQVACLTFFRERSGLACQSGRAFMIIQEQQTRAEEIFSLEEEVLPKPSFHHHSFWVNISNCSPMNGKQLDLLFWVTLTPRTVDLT

MsCDCP1 = molecular target: T2, MsCDCP1 (mouse, UniProt Q5U462 30-666)
T2 construct: extracellular domain; also called mouse CDCP1; not shown: Fc or his tag
T2 sequence (looked up): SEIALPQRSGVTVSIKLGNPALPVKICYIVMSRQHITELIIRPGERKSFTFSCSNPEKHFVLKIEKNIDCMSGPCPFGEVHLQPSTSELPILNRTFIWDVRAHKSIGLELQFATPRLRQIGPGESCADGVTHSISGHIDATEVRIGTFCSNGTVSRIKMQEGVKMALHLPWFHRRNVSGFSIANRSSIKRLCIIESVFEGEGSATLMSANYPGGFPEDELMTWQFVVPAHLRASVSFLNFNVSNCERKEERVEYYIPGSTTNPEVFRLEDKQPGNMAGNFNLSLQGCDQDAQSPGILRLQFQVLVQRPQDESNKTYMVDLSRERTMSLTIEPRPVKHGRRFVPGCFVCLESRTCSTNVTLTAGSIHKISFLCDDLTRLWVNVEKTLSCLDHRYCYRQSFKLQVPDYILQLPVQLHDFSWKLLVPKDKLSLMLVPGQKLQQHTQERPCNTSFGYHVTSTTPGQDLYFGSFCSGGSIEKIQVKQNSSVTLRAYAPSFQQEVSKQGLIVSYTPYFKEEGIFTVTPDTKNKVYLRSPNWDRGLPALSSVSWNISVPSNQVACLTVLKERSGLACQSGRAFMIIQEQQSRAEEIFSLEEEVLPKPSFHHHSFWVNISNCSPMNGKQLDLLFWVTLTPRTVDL

CynoCDCP1 = molecular target: T3, CynoCDCP1 (Macaca fascicularis, UniProt A0A2K5VLA8 30-667)
T3 construct: extracellular domain; also called Macaca fascicularis CDCP1; monkey CDCP1; not shown: Fc or his tag
T3 sequence: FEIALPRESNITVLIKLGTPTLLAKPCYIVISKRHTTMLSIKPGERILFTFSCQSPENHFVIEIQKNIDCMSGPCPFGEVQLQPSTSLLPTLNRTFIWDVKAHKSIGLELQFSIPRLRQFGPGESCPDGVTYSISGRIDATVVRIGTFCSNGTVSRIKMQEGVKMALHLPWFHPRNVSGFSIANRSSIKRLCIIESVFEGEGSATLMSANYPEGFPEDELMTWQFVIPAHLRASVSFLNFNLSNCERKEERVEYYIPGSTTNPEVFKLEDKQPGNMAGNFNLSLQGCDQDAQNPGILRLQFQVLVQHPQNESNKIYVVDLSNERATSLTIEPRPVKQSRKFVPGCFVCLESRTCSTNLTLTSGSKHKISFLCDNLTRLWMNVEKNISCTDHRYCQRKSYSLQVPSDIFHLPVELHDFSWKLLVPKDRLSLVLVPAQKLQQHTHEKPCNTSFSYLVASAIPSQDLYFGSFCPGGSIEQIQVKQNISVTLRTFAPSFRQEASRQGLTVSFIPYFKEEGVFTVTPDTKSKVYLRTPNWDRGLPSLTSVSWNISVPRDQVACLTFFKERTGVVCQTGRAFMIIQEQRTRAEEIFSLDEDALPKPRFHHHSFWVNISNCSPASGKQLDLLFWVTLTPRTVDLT

HuCDCP1-A = molecular target: T4, HuCDCP1-A (human, UniProt Q9H5V8 30-430)
T4 construct: range 30-430; expressed in HEK-293T, purified by Fc/his tag; also called human CDCP1-A; membrane-distal region of CDCP1; not shown: Fc or his tag
T4 sequence (looked up): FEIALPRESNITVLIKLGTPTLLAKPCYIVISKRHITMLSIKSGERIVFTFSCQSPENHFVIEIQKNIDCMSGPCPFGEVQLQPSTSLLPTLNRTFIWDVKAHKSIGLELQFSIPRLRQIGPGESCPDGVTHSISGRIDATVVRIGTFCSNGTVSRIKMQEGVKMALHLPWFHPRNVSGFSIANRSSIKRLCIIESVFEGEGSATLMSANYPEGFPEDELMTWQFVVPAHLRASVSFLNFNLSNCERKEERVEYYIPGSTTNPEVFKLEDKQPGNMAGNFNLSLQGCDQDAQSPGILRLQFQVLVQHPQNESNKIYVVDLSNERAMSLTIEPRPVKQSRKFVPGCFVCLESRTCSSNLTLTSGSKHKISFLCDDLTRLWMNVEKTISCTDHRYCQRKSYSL

B1: 10D2 (antibody, V domains shown)
VH: EVQLQQSGPELKKPGETVKISCKASGYTFTDYSMHWVKQAPGKGLKWMGWINTETGQPTYADDFKGRFAFSLETSASSAYLQINNLKNEDTATYFCTRTFYYDYVGDYWGQGTTVTVSS
VL: DIVMTQSHKFMSTSVGDRVSITCKASQDVSTAVAWYRQKPGQSPKLLIYWASTRHTGVPDRLTGSGSGTDFALTINSVQAEDLALYYCQQHSSTPYTFGGGTKLEIK
notes: murine hybridoma mAb
RatCDCP1
  EC50: 41.1 nM
MsCDCP1
  binding result: no binding (tested: 150 nM highest concentration)
CynoCDCP1
  EC50: 16.1 nM
HuCDCP1-A
  EC50: 0.747 nM
